In PMC3893231 (mAbs, 2013):

Target: T1, Ang2 (UniProt O15123 19-496)
T1 sequence: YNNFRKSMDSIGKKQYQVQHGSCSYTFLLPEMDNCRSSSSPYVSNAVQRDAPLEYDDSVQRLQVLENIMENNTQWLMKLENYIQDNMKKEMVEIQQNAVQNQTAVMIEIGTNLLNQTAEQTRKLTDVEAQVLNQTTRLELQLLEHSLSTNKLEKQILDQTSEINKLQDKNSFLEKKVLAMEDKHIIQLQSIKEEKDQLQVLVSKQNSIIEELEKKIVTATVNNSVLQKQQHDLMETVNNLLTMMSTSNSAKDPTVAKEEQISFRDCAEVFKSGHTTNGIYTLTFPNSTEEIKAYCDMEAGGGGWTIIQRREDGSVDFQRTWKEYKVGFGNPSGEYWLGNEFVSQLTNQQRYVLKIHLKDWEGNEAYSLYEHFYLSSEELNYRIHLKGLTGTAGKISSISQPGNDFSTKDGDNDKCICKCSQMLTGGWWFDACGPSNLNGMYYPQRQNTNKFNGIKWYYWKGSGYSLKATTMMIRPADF
Test: SPR

Kd: 22.2 ± 0.08 nM
Binder: LWDDCYFFPNPPHCYNSP (designed binder) [MBP-a1]
